Positions count from the first letter of the chain named.
T1: CD22 peptide on HLA-A*02:05 (human)
T1 peptide: FLSNDTVQL

T2: CD22 peptide on HLA-A*02:04 (human)
T2 peptide: FLSNDTVQL

T3: CD22 peptide on HLA-A*02:07 (human)
T3 peptide: FLSNDTVQL

T4: CD22 peptide on HLA-A*02:02 (human)
T4 peptide: FLSNDTVQL

T5: CD22 peptide on HLA-A*02:08 (human)
T5 peptide: FLSNDTVQL

T6: CD22 peptide on HLA-A*02:10 (human)
T6 peptide: FLSNDTVQL

T7: CD22 peptide on HLA-A*02:01 (human)
T7 peptide: FLSNDTVQL

B1: CD22 TCR (TCR, V domains shown)
Valpha: EDKVVQSPLSLVVHEGDTVTLNCSYEVTNFRSLLWYKQEKKAPTFLFMLTSSGIEKKSGRLSSILDKKELFSILNITATQTGDSAVYLCAVDNQGGKLIFGQGTELSVKP
Vbeta: GAVVSQHPSWVICKSGTSVKIECRSLDFQATTMFWYRQFPKQSLMLMATSNEGSKATYEQGVEKDKFLINHASLTLSTLTVTSAHPEDSSFYICSARPSGVYNEQFFGPGTRLTVL
B2: CD22 TCR 3225 (TCR, V domains shown)
Valpha: B1 Valpha
Vbeta: B1 Vbeta with P98E, S99A

Key:
[1] = target: T1, CD22 peptide on HLA-A*02:05; experiment: cytokine release
[2] = target: T2, CD22 peptide on HLA-A*02:04; experiment: cytokine release
[3] = target: T3, CD22 peptide on HLA-A*02:07; experiment: cytokine release
[4] = target: T4, CD22 peptide on HLA-A*02:02; experiment: cytokine release
[5] = target: T5, CD22 peptide on HLA-A*02:08; experiment: cytokine release
[6] = target: T6, CD22 peptide on HLA-A*02:10; experiment: cytokine release
[7] = target: CD22 peptide … (SEQ ID NO: 1) in the context of HLA-A*02:01 (human); experiment: cell-based or functional assay
[8] = target: T7, CD22 peptide on HLA-A*02:01; experiment: killing
[9] = target: T7, CD22 peptide on HLA-A*02:01; experiment: cytokine release

Row | Binder | binding result [1] | binding result [2] | binding result [3] | binding result [4] | binding result [5] | binding result [6] | Kd value by peptide titration on T2 cells (50% of maximal IFNγ release, ELISA) [7] | binding result [8] | binding result [9]
1 | B1 | recognises | recognises | recognises | no recognition | no recognition | recognises | 1.1e-08 | recognises | 
2 | B2 |  |  |  |  |  |  | 2.2e-08 |  | recognises

Reference: patent US20220064256A1 (published 2022)
